In patent US20130058960A1 (Genentech, published 2013):

T1: TAT425 polypeptide (Homo sapiens (Human), UniProt O15439 1-1325)
T1 construct: no signal peptide or domain limits are stated; also called TAT425 protein; polypeptide encoded by DNA340411
T1 sequence: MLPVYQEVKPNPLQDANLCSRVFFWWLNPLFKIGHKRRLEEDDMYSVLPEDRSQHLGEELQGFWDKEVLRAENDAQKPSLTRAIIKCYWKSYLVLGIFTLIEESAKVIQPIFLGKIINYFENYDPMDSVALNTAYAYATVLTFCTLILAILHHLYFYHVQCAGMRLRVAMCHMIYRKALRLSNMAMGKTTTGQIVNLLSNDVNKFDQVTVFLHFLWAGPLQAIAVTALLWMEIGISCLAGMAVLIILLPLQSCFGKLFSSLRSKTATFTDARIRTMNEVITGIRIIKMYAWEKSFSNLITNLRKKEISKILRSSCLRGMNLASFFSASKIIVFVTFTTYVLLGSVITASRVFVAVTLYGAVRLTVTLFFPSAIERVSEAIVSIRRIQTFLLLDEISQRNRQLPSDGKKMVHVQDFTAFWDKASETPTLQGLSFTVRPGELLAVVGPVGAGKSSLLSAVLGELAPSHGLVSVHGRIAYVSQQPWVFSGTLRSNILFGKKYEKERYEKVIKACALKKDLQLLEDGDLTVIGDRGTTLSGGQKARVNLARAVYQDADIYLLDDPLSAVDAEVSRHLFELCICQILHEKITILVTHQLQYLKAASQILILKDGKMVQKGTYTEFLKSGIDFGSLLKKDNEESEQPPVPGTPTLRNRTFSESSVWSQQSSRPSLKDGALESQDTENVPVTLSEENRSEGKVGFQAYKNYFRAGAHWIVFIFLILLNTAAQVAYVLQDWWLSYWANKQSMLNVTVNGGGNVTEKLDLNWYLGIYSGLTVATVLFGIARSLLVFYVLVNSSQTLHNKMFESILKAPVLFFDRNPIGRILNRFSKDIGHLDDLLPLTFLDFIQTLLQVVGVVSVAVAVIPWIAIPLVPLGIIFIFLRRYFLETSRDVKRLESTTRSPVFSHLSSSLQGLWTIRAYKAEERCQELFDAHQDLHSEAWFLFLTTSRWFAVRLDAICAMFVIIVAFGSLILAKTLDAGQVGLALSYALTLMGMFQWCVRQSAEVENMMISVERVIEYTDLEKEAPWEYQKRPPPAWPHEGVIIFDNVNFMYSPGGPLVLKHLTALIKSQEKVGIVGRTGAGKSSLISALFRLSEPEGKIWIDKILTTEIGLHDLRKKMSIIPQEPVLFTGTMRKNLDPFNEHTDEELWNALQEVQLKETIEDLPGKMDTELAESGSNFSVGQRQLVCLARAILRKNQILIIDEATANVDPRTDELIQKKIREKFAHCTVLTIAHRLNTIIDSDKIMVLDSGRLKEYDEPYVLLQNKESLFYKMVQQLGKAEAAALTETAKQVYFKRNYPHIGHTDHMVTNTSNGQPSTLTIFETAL

B1: anti-TAT425 monoclonal antibody 14E7.17.1 (antibody, V domains shown)
VH: QVQLKESGPGLVAPSQSLSITCTVSGFSLTTYGVSWVRQPPGKGLEWLGLIWGDGSINYHSALISRLSISKDNSKSQVFLKLNSLQTDDTATYYCAKGWGGLYVMDYWGQGTSVTVAS
VL: DIQMTQSPASLSASVGETVTITCRSSENIYSYLAWYQQKLGKSPQLLVYNAKTLAEGVPSRFSGSGSGTQFSLKIYSLQSADFGSYYCQHHFGSPPTFGGGTKLESKR
B2: anti-TAT425 monoclonal antibody 2E4.6.1 (antibody, V domains shown)
VH: EVQLQQSGAELVKPGASVKLSCTTSGFNIKDYYMQWVKQRTGQGLEWIGRIDPEDGETKNAPKFQGKATITADTSSNTAYLQLSSLTSEDTAVYFCAREGYYGNGYAMDYWGQGTSVTVSS
VL: DVLMTQTPLSLPVSLGDQASISCRSSQSIVHSNGNTYLDWYLQKPGQSPKLLIYKVSNRFSGVPDRFSGSGSGTDFTLKISRVEAEDLGVYYCFQGSHVPWTFGGGTKLEIKR
B3: anti-TAT425 monoclonal antibody 13H2.28.2 (antibody, V domains shown)
VH: QVQLQQPGAELVRPGASVKLSCKASGYSFTSYWMNWVRQRPGQGLEWIGMIHPSDSETRLNQKFKDKATLTVDKSSSTAYMQLSSPTSDDSAVYFCTREAITAVHFWGHGTTLTVSS
VL: QAVVTQESALTTSPGETVTLTCRSSTGAVTTSNYANWVQEKPDHLFTGLIGGTNNRAPGVPARFSGSLIGDKAALTITGAQTEDEAIYFCALWYSNHWVFGGGTKLTVLG

biological target: T1, TAT425 polypeptide; test: Western blot, ELISA, FACS and/or immunohistochemistry on cells expressing TAT425

Binding result, binds:
B1, B2, B3
